Reference: paper doi:10.1101/2020.05.02.073981
Changes are numbered by the printed parent chain.

T1: His6-MmfR (Streptomyces coelicolor A3(2)) (UniProt Q7APH7)
T1 sequence: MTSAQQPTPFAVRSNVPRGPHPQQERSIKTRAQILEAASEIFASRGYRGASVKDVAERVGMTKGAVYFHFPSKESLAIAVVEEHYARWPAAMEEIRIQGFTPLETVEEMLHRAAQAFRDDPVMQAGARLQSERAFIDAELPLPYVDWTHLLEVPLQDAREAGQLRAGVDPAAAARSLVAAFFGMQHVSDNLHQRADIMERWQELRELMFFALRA

T2: MmfR Y85F Y85F (Streptomyces coelicolor A3(2)) (UniProt Q7APH7)
T2 sequence: T1 sequence with Y85F

T3: MmfR Q130E Q130E (Streptomyces coelicolor A3(2)) (UniProt Q7APH7)
T3 sequence: T1 sequence with Q130E

T4: MmfR Y144F Y144F (Streptomyces coelicolor A3(2)) (UniProt Q7APH7)
T4 sequence: T1 sequence with Y144F

T5: His6-MmfR (Streptomyces coelicolor A3(2), UniProt Q7APH7 1-214)
T5 sequence: T1 sequence

B1: MARE2 hairpin (structured_DNA)
DNA: GCAAAAAACCTTCGGGAAGGTTTGACGCGAGGCGTCAAACCTTCCCGAAGGTTTTTTGC
B2: MARE1 hairpin (structured_DNA)
DNA: GCAATATACCTGCGGGAAGGTATTATGCGAGGCATAATACCTTCCCGCAGGTATATTGC

Key:
Assay in all cases: EMSA
[1] = target: T1, His6-MmfR (Streptomyces coelicolor A3(2))
[2] = target: T2, MmfR Y85F Y85F (Streptomyces coelicolor A3(2))
[3] = target: T3, MmfR Q130E Q130E (Streptomyces coelicolor A3(2))
[4] = target: T4, MmfR Y144F Y144F (Streptomyces coelicolor A3(2))
His6-MmfR = target: T5, His6-MmfR

Molecule | binding [1] | binding result (His6-MmfR) | other results
GGACCACCGGCTGGCTTGCCGCGCTGCAAGACAGCCGGGATCGGTAAGCTGACCGAGAGAAATATACCTGCGGGAAGGTATTATGCAATGGGTTTCCGTG (double strand) [mmfL-mmfR internal fragment, 100 bp] | binds | – | –
GGCGCCTCACAGTGTCAAACCTTCCCGAAGGTTTTTTATGACTCGTAACGGAGAGTTAAACCGGGGCTTACGAGAGCGGCGGGGCCTCGGTGTTTGGA (double strand) [mmyB-mmyY internal fragment, 98 bp] | binds | – | –
GGCGCCTCACAGTGTCAAACCTTCCCGAAGGTTTTTTATGACTCGTAACGGAGAGTTAAACCGGGGCTTACGAGAGCGGCGGGGCCTCGGTGTTTGGACCGCAACTCGGCGGGGCCCTGGTGCTGAGAACACCACGTCTGAGGCCCCTAGCAGAAGTTCGCTCTGGCAGCCTTCGCACGACCCTGCCGATACTCGCCAGCGATCCGAACCACTCGCCGAAGGAGTTCACC (double strand) [mmyB-mmyY intergenic region, 230 bp] | binds | – | –
GGCTGCCTTCCTTCGTGTGTGCGGGCCCTGCGGGCGCCATGCTGGTGCGACCCGGGTCGGCACGGAAACCCATTGCATAATACCTTCCCGCAGGTATATTTCTCTCGGTCAGCTTACCGATCCCGGCTGTCTTGCAGCGCGGCAAGCCAGCCGGTGGTCCCGTACGAGGACACACCGGGAGATGTAGCGCCCCT (double strand) [mmfL-mmfR intergenic region, 194 bp] | binds | – | binding [2]: binds; binding [3]: binds; binding [4]: binds
B1 | – | binds | –
B2 | – | binds | –
